For two substances, stoichiometry N results are on record in publication PMC9163089.

Assay [1] deals with Cytosolic domain of YscV (YscVC, residues 356-704), co-expressed with YscX and YscY (Yersinia enterocolitica). The experiment in a line: SEC.
The target is the same in assay [2]. Put plainly: crystal structure.
Assay [3] concerns the target Cytosolic domain of YscV (YscVC, residues 356-704), purified alone (Yersinia enterocolitica). Put plainly: SEC; analytical SEC of YscVC alone at 10, 25 and 100 µM initial concentration, Superdex 200 10/300GL, 20 mM Tris pH 8, 150 mM NaCl; monomer to nonamer. A general note: Size exclusion chromatography separates by hydrodynamic size, large species first.

Broadly, the stoichiometry N is a count of units in the complex or per binding partner. In the case of “Cytosolic domain of YscV (YscVC, residues 356-704), co-expressed with YscX and YscY (domain or fragment)”, the stoichiometry N in assay [1] and in assay [2] was 9 each time.

Regarding “Cytosolic domain of YscV (YscVC, residues 356-704), purified alone (domain or fragment)”, the stoichiometry N in assay [3] stood at 9.
